Results from publication PMC4731787, “Structural basis for the recognition of two consecutive mutually interacting DPF motifs by the SGIP1 μ homology domain” (Scientific Reports, 2016).
Read-outs that look alike come from different tables or passages of the source. Where no end group is shown, it is not given here. GST = glutathione S-transferase fusion tag

T1: SGIP1 μHD (residues 552 to 828) (Homo sapiens, UniProt Q9BQI5)
T1 construct: the SGIP1 μHD (residues 552 to 828); GST (N, cleaved yes); made in house; host or cells: Escherichia coli BL21-Gold (DE3) or Rosetta2
T1 sequence (Q9BQI5 552-828): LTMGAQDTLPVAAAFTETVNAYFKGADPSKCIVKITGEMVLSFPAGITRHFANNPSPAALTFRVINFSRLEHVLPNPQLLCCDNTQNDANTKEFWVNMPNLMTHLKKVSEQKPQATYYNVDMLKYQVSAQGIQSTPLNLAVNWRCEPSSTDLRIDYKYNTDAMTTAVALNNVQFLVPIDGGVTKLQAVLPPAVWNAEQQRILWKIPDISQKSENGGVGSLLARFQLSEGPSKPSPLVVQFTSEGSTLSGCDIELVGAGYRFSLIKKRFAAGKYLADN

B1: SGIP1 μ homology domain (residues 552 to 828) (domain or fragment, human, UniProt Q9BQI5-1 552-828, looked up)
chain: T1 sequence (Q9BQI5 552-828)
notes: A SeMet-substituted form (E. coli B834(DE3)) was used only for the structure of the domain alone; also called SGIP1 μHD; μHD; source: E. coli BL21-Gold (DE3) or Rosetta2, purified (Glutathione Sepharose, 3C protease cleavage on the column, Superdex 200)
B2: Eps15-530–896 (domain or fragment, human, UniProt P42566-1 530-896, looked up)
chain: STSSSETANLNEHVEGQSNLESEPIHQESPARSSPELLPSGVTDENEVTTAVTEKVCSELDNNRHSKEEDPFNVDSSSLTGPVADTNLDFFQSDPFVGSDPFKDDPFGKIDPFGGDPFKGSDPFASDCFFRQSTDPFATSSTDPFSAANNSSITSVETLKHNDPFAPGGTVVAASDSATDPFASVFGNESFGGGFADFSTLSKVNNEDPFRSATSSSVSNVVITKNVFEETSVKSEDEPPALPPKIGTPTRPCPLPPGKRSINKLDSPDPFKLNDPFQPFPGNDSPKEKDPEIFCDPFTSATTTTNKEADPSNFANFSAYPSEEDMIEWAKRESEREEEQRLARLNQQEQEDLELAIALSKSEISEA
notes: also called C-terminal fragment of human Eps15; source: E. coli, purified (Ni Sepharose, thrombin, Glutathione Sepharose, 3C protease, Superdex 200); not shown: GST, N-terminal, cleaved; His tag, C-terminal, cleaved
B3: appendage domain of human α-adaptin (residues 711 to 955) (domain or fragment, UniProt O95782-2 711-955, looked up)
chain: IGPPIPEADELLNKFVCKNNGVLFENQLLQIGVKSEFRQNLGRMYLFYGNKTSVQFQNFSPTVVHPGDLQTQLAVQTKRVAAQVDGGAQVQQVLNIECLRDFLTPPLLSVRFRYGGAPQALTLKLPVTINKFFQPTEMAAQDFFQRWKQLSLPQQEAQKIFKANHPMDAEVTKAKLLGFGSALLDNVDPNPENFVGAGIIQTKALQVGCLLRLEPNAQAQMYRLTLRTSKEPVSRHLCELLAQQF
notes: also called α-adaptin appendage domain; source: E. coli, purified in the same manner as for the SGIP1 μHD
B4: Eps15-661–790 (domain or fragment, human, UniProt P42566-1 661-790, looked up)
chain: QSTDPFATSSTDPFSAANNSSITSVETLKHNDPFAPGGTVVAASDSATDPFASVFGNESFGGGFADFSTLSKVNNEDPFRSATSSSVSNVVITKNVFEETSVKSEDEPPALPPKIGTPTRPCPLPPGKRS
notes: Eps15, human, residues 661-790 (limits from the fragment's name); source: E. coli, purified in the same manner as for the SGIP1 μHD
B5: Eps15-661–720 (domain or fragment, human, UniProt P42566-1 661-720, looked up)
chain: QSTDPFATSSTDPFSAANNSSITSVETLKHNDPFAPGGTVVAASDSATDPFASVFGNESF
notes: Eps15, human, residues 661-720; source: E. coli, purified in the same manner as for the SGIP1 μHD

Tests used:
SGIP1 µHD A563E = assay: ITC of Eps15 fragments with the SGIP1 μHD A563E mutant; format: binding, human; conditions: for Kd: 25 °C, 50 mM Tris-HCl pH 8.0, 50 mM NaCl, mutant μHD in cell titrated with fragment, two runs
Protocol: (§1) For the majority of the ITC experiments, the SGIP1 μHD, its mutants, or the FCHo1 μHD, in 50 mM Tris-HCl buffer (pH 8.0) containing 50 mM NaCl, was loaded in the sample cell, in a volume of 1.42 ml, and titrated with various Eps15-derived fragments or peptides in the same buffer, with an initial 5 μl injection and subsequent 10 μl injections, for a total of 25 injections. The titrations were performed while the samples were stirred at 310 r.p.m. at 25 °C. Each injection was followed by an interval of 4 min, to allow baseline stabilization. For the other ITC experiments indicated in Supplementary Table 2, the Eps15-derived fragments or peptides in the sample cell were titrated with the SGIP1 or FCHo1 μHD. All ITC experiments were performed on a VP-ITC microcalorimeter (MicroCal, LLC) and repeated twice, and the data were processed with the program NITPIC[42]. The two data sets from each ITC experiment were analyzed by global weighted least-squares fitting with the program SEDPHAT[43]. Figures for the ITC data were created with the program GUSSI (http://biophysics.swmed.edu/MBR/software.html). To obtain the values of the traditional stoichiometric parameter N in our ITC data analyses (Supplementary Table 2), we used the values of the parameters of the incompetent fractions of proteins and ligands. […] The values of the incompetent fractions are between 0 and 1, whereas the other parameter affecting the traditional parameter N, the number of sites, was fixed as 1 and 2, for the single- and two-site models, respectively. Thus, in the two-site model, the values of N for the first and second sites are identical in our ITC data analyses (Supplementary Table 2).

[1] = target: T1, SGIP1 μHD (residues 552 to 828); assay: ITC of Eps15 fragments with the SGIP1 μHD; format: binding; conditions: for Kd: 50 mM Tris-HCl pH 8.0, 50 mM NaCl, global fit of two runs
Protocol: as §1

SGIP1 µHD A565E = assay: ITC of Eps15 fragments with the SGIP1 μHD A565E mutant; format: binding, human; conditions: for Kd: 25 °C, 50 mM Tris-HCl pH 8.0, 50 mM NaCl, mutant μHD in cell titrated with fragment, two runs
Protocol: as §1

[2] = target: SGIP1 μ homology domain (residues 552 to 828) (human) (UniProt Q9BQI5); assay: ITC; VP-ITC, 25 °C, 50 mM Tris-HCl pH 8.0, 50 mM NaCl; for the majority the μHD (SGIP1, its mutants or FCHo1) in the cell, titrated with Eps15 fragments or peptides, for others the reverse (Supplementary Table 2); repeated twice, global fit with SEDPHAT, single-site or two-site model
Eps15-530–896 = target: B2; assay: SEC; analytical gel filtration on Superdex 200, 50 mM Tris-HCl pH 8.0, 50 mM NaCl, 5 mM DTT, 5% glycerol; fractions on SDS-PAGE; Eps15-530–896 and μHD mixed 1:2.4; Eps15-530–896, μHD and appendage domain mixed 1:3:6; conditions: both partners purified
[3] = target: B1; assay: ITC; VP-ITC, 25 °C, 50 mM Tris-HCl pH 8.0, 50 mM NaCl; for the majority the μHD (SGIP1, its mutants or FCHo1) in the cell, titrated with Eps15 fragments or peptides, for others the reverse (Supplementary Table 2); repeated twice, global fit with SEDPHAT, single-site or two-site model; conditions: both partners purified
[4] = target: B3; assay: ITC; VP-ITC; α-adaptin appendage domain with Eps15 fragments; which of the two was in the cell is not told in the text (Supplementary Table 2); conditions: both partners purified
[5] = target: α-adaptin appendage domain (residues 711 to 955); assay: ITC of Eps15 fragments with the α-adaptin appendage domain; format: binding, human
[6] = 25 °C, μHD in cell titrated with fragment, single-site model
[7] = 25 °C, μHD in cell titrated with fragment, single-site model, ± 68.3% confidence interval
[8] = 25 °C, fragment in cell titrated with μHD, single-site model
[9] = 25 °C, fragment in cell titrated with μHD, two-site model, first site
[10] = 25 °C, fragment in cell titrated with μHD, two-site model, second site

## GST-Eps15-628–654: GST-tagged Eps15 fragment, residues 628–654, 5 DPF motifs ({GST}-SDPFKDDPFGKIDPFGGDPFKGSDPFA)
SGIP1 µHD A563E
  binding to SGIP1 μHD with Ala563 replaced by Glu (in words): abolished the binding
  Kd: below detection limit
[1]; [6]
  -TΔS: -1.785 kcal/mol
  ΔG: -8.175 kcal/mol
[1]; [7]
  ΔH: -6.39 ± 0.179 kcal/mol
SGIP1 µHD A565E
  binding to SGIP1 μHD with Ala565 replaced by Glu (in words): abolished the binding
  Kd: below detection limit

## Eps15 two-DPF fragment, Asp of the C-terminal DPF motif replaced with Asn (peptide)
[2]
  fold reduction of the binding against the unreplaced fragment: 2.4 fold

## Eps15 two-DPF fragment, Asp of the N-terminal DPF motif replaced with Asn (peptide)
[2]
  fold reduction of the binding against the unreplaced fragment: 3.4 fold

## GST-Eps15-628–644: GST-tagged Eps15 fragment, residues 628–644, 3 DPF motifs ({GST}-SDPFKDDPFGKIDPFGG)
SGIP1 µHD A563E
  Kd: below detection limit
[1]; [6]
  -TΔS: -2.159 kcal/mol
  ΔG: -8.444 kcal/mol
[1]; [7]
  ΔH: -6.285 ± 0.144 kcal/mol
SGIP1 µHD A565E
  Kd: below detection limit

## B1
Eps15-530–896
  binding result: binds

## B2
[3]
  Kd of the high-affinity site (two-site model): ~0.13 µM
[1]; 25 °C, Eps15 fragment in cell titrated with SGIP1 μHD, two-site model, second site, 68.3% confidence interval, read-out: Kd, second site
  Kd: 27.3 ± 15.7 µM
[1]; 25 °C, Eps15 fragment in sample cell titrated with SGIP1 μHD, single-site model, ± 68.3% confidence interval, read-out: Kd
  Kd: 4.5 ± 2.2 µM
[1]; [8]
  -TΔS: 3.678 kcal/mol
  ΔG: -7.296 kcal/mol
[1]; 25 °C, fragment in cell titrated with μHD, single-site model, ± 68.3% confidence interval
  ΔH: -10.974 ± 0.504 kcal/mol
[1]; [9]
  -TΔS: -4.297 kcal/mol
  ΔG: -9.374 kcal/mol
[1]; 25 °C, fragment in cell titrated with μHD, two-site model, first site, ± 68.3% confidence interval
  ΔH: -5.077 ± 0.308 kcal/mol
[1]; [10]
  -TΔS, second site: 2.744 kcal/mol
  ΔG, second site: -6.226 kcal/mol
[1]; 25 °C, fragment in cell titrated with μHD, two-site model, second site, 68.3% confidence interval
  ΔH, second site: -8.97 ± 1.643 kcal/mol
[1]; fragment in cell titrated with μHD, single-site model, ± 68.3% confidence interval
  N (binding ratio of Eps15 fragment to μHD): 0.76 ± 0.11
[1]; fragment in cell titrated with μHD, two-site model, first site (N identical for both sites), ± 68.3% confidence interval
  N (binding ratio of Eps15 fragment to μHD): 0.96 ± 0.04
[1]; fragment in cell titrated with μHD, two-site model, second site (N identical for both sites), ± 68.3% confidence interval
  N, second site: 0.96 ± 0.04

## B3
Eps15-530–896
  binding result: binds

## B4
[1]
  binding to the SGIP1 μHD (in words): could not detect the clear binding
[1]; 25 °C, μHD in sample cell titrated with Eps15 fragment, single-site model, ± 68.3% confidence interval
  Kd: below detection limit
[4]
  binding result: binds
[5]
  Kd for the α-adaptin appendage domain (in words): in the nanomolar range
[5]; 25 °C, appendage domain titrated with Eps15 fragment, single-site model, global fit of two runs, ± 68.3% confidence interval
  Kd: 0.69 ± 0.08 µM
[5]; 25 °C, single-site model
  -TΔS: 20.041 kcal/mol
  ΔG: -8.401 kcal/mol
[5]; 25 °C, single-site model, ± 68.3% confidence interval
  ΔH: -28.442 ± 0.319 kcal/mol

## B5
[4]
  binding result: binds
